{
  "source": "patent US20040175758",
  "proteins": {"B1": {"name": "Recombinant FLAG-tagged human GPBP (expressed in yeast, FLAG-affinity purified) (protein)", "chain": "MSDNQSWNSSGSEEDPETESGPPVERCGVLSKWTNYIHGWQDRWVVLKNNALSYYKSEDETEYGCRGSICLSKAVITPHDFDECRFDISVNDSVWYLRAQDPDHRQQWIDAIEQHKTESGYGSESSLRRHGSMVSLVSGASGYSATSTSSFKKGHSLREKLAEMETFRDILCRQVDTLQKYFDACADAVSKDELQRDKVVEDDEDDFPTTRSDGDFLHSTNGNKEKLFPHVTPKGINGIDFKGEAITFKATTAGILATLSHCIELMVKREDSWQKRLDKETEKKRRTEEAYKNAMTELKKKSHFGGPDYEEGPNSLINEEEFFDAVEAALDRQDKIEEQSQSEKVRLHWPTSLPSGDAFSSVGTHRFVQKPYSRSSSMSSIDLVSASDDVHRFSSQVEEMVQNHMTYSLQDVGGDANWQLVVEEGEMKVYRREVEENGIVLDPLKATHAVKGVTGHEVCNYFWNVDVRNDWETTIENFHVVETLADNAIIIYQTHKRVWPASQRDVLYLSVIRKIPALTENDPETWIVCNFSVDHDSAPLNNRCVRAKINVAMICQTLVSPPEGNQEISRDNILCKITYVANVNPGGWAPASVLRAVAKREYPKFLKRFTSYVQEKTAGKPILF"}},
  "key": {"[1]": {"molecular_target": "Bovine recombinant PrP (Prionics), P10279", "sequence (P10279 25-242)": "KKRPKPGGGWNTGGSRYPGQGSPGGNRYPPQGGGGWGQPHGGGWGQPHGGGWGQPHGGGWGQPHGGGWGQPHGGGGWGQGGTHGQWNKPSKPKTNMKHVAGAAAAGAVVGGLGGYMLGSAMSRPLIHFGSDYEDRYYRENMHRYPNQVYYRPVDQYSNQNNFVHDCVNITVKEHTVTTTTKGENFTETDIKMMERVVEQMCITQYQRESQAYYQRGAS"}, "[2]": {"molecular_target": "T1, Q4, synthetic peptide Ac-EKTAGKPILF-OH", "T1 chain": "EKTAGKPILF"}},
  "data": [
    {"protein": "B1", "values": [
      {"measurement": "in vitro phosphorylation with [γ^32P]-ATP, autoradiography", "setting": "[1]", "value": "transferred phosphates to PrP"},
      {"measurement": "GPBP autophosphorylation in vitro", "setting": "[2]", "value": "inhibited GPBP autophosphorylation in a more limited manner"}
    ]}
  ]
}
